Here are results for 21 molecules from US20110118447A1.

B1: C5A (XPA23) VL A51W (antibody, V domains shown)
VH: EVQLLESGGGLVQPGGSLRLSCAASGFTFSKYFMFWVRQAPGKGLEWVSVISPSGGMTRYADSVKGRFTISRDNSKNTLYLQMNSLRAEDTAVYYCARVGYGGNSDYWGQGTLVTVSS
VL: DIQMTQSPSSVSASVGDRLTIICRASQDINRWLAWYQQTPGNAPKLLIHSWTSLQSGVPSRFSGSGSGTDFTLTINSLQPEDFATYYCQQADSFPLTFGGGTKVEIK
B2: C5A (XPA23) VL T52V (antibody, V domains shown)
VH: EVQLLESGGGLVQPGGSLRLSCAASGFTFSKYFMFWVRQAPGKGLEWVSVISPSGGMTRYADSVKGRFTISRDNSKNTLYLQMNSLRAEDTAVYYCARVGYGGNSDYWGQGTLVTVSS
VL: DIQMTQSPSSVSASVGDRLTIICRASQDINRWLAWYQQTPGNAPKLLIHSAVSLQSGVPSRFSGSGSGTDFTLTINSLQPEDFATYYCQQADSFPLTFGGGTKVEIK
B3: C5A (XPA23) VL S53V (antibody, V domains shown)
VH: EVQLLESGGGLVQPGGSLRLSCAASGFTFSKYFMFWVRQAPGKGLEWVSVISPSGGMTRYADSVKGRFTISRDNSKNTLYLQMNSLRAEDTAVYYCARVGYGGNSDYWGQGTLVTVSS
VL: DIQMTQSPSSVSASVGDRLTIICRASQDINRWLAWYQQTPGNAPKLLIHSATVLQSGVPSRFSGSGSGTDFTLTINSLQPEDFATYYCQQADSFPLTFGGGTKVEIK
B4: C5A (XPA23) VL S53P (antibody, V domains shown)
VH: EVQLLESGGGLVQPGGSLRLSCAASGFTFSKYFMFWVRQAPGKGLEWVSVISPSGGMTRYADSVKGRFTISRDNSKNTLYLQMNSLRAEDTAVYYCARVGYGGNSDYWGQGTLVTVSS
VL: DIQMTQSPSSVSASVGDRLTIICRASQDINRWLAWYQQTPGNAPKLLIHSATPLQSGVPSRFSGSGSGTDFTLTINSLQPEDFATYYCQQADSFPLTFGGGTKVEIK
B5: C5A (XPA23) VL D92A (antibody, V domains shown)
VH: EVQLLESGGGLVQPGGSLRLSCAASGFTFSKYFMFWVRQAPGKGLEWVSVISPSGGMTRYADSVKGRFTISRDNSKNTLYLQMNSLRAEDTAVYYCARVGYGGNSDYWGQGTLVTVSS
VL: DIQMTQSPSSVSASVGDRLTIICRASQDINRWLAWYQQTPGNAPKLLIHSATSLQSGVPSRFSGSGSGTDFTLTINSLQPEDFATYYCQQAASFPLTFGGGTKVEIK
B6: C5A (XPA23) VL S53G (antibody, V domains shown)
VH: EVQLLESGGGLVQPGGSLRLSCAASGFTFSKYFMFWVRQAPGKGLEWVSVISPSGGMTRYADSVKGRFTISRDNSKNTLYLQMNSLRAEDTAVYYCARVGYGGNSDYWGQGTLVTVSS
VL: DIQMTQSPSSVSASVGDRLTIICRASQDINRWLAWYQQTPGNAPKLLIHSATGLQSGVPSRFSGSGSGTDFTLTINSLQPEDFATYYCQQADSFPLTFGGGTKVEIK
B7: C5A (XPA23) VL S53L (antibody, V domains shown)
VH: EVQLLESGGGLVQPGGSLRLSCAASGFTFSKYFMFWVRQAPGKGLEWVSVISPSGGMTRYADSVKGRFTISRDNSKNTLYLQMNSLRAEDTAVYYCARVGYGGNSDYWGQGTLVTVSS
VL: DIQMTQSPSSVSASVGDRLTIICRASQDINRWLAWYQQTPGNAPKLLIHSATLLQSGVPSRFSGSGSGTDFTLTINSLQPEDFATYYCQQADSFPLTFGGGTKVEIK
B8: C5A (XPA23) VL S53A (antibody, V domains shown)
VH: EVQLLESGGGLVQPGGSLRLSCAASGFTFSKYFMFWVRQAPGKGLEWVSVISPSGGMTRYADSVKGRFTISRDNSKNTLYLQMNSLRAEDTAVYYCARVGYGGNSDYWGQGTLVTVSS
VL: DIQMTQSPSSVSASVGDRLTIICRASQDINRWLAWYQQTPGNAPKLLIHSATALQSGVPSRFSGSGSGTDFTLTINSLQPEDFATYYCQQADSFPLTFGGGTKVEIK
B9: C5A (XPA23) VL T52I (antibody, V domains shown)
VH: EVQLLESGGGLVQPGGSLRLSCAASGFTFSKYFMFWVRQAPGKGLEWVSVISPSGGMTRYADSVKGRFTISRDNSKNTLYLQMNSLRAEDTAVYYCARVGYGGNSDYWGQGTLVTVSS
VL: DIQMTQSPSSVSASVGDRLTIICRASQDINRWLAWYQQTPGNAPKLLIHSAISLQSGVPSRFSGSGSGTDFTLTINSLQPEDFATYYCQQADSFPLTFGGGTKVEIK
B10: C5A (XPA23) VL S53F (antibody, V domains shown)
VH: EVQLLESGGGLVQPGGSLRLSCAASGFTFSKYFMFWVRQAPGKGLEWVSVISPSGGMTRYADSVKGRFTISRDNSKNTLYLQMNSLRAEDTAVYYCARVGYGGNSDYWGQGTLVTVSS
VL: DIQMTQSPSSVSASVGDRLTIICRASQDINRWLAWYQQTPGNAPKLLIHSATFLQSGVPSRFSGSGSGTDFTLTINSLQPEDFATYYCQQADSFPLTFGGGTKVEIK
B11: C5A (XPA23) VL D92G (antibody, V domains shown)
VH: EVQLLESGGGLVQPGGSLRLSCAASGFTFSKYFMFWVRQAPGKGLEWVSVISPSGGMTRYADSVKGRFTISRDNSKNTLYLQMNSLRAEDTAVYYCARVGYGGNSDYWGQGTLVTVSS
VL: DIQMTQSPSSVSASVGDRLTIICRASQDINRWLAWYQQTPGNAPKLLIHSATSLQSGVPSRFSGSGSGTDFTLTINSLQPEDFATYYCQQAGSFPLTFGGGTKVEIK
B12: C5A (XPA23) VL T52W (antibody, V domains shown)
VH: EVQLLESGGGLVQPGGSLRLSCAASGFTFSKYFMFWVRQAPGKGLEWVSVISPSGGMTRYADSVKGRFTISRDNSKNTLYLQMNSLRAEDTAVYYCARVGYGGNSDYWGQGTLVTVSS
VL: DIQMTQSPSSVSASVGDRLTIICRASQDINRWLAWYQQTPGNAPKLLIHSAWSLQSGVPSRFSGSGSGTDFTLTINSLQPEDFATYYCQQADSFPLTFGGGTKVEIK
B13: C5A (XPA23) VL S53I (antibody, V domains shown)
VH: EVQLLESGGGLVQPGGSLRLSCAASGFTFSKYFMFWVRQAPGKGLEWVSVISPSGGMTRYADSVKGRFTISRDNSKNTLYLQMNSLRAEDTAVYYCARVGYGGNSDYWGQGTLVTVSS
VL: DIQMTQSPSSVSASVGDRLTIICRASQDINRWLAWYQQTPGNAPKLLIHSATILQSGVPSRFSGSGSGTDFTLTINSLQPEDFATYYCQQADSFPLTFGGGTKVEIK
B14: C5A (XPA23) VL A91L (antibody, V domains shown)
VH: EVQLLESGGGLVQPGGSLRLSCAASGFTFSKYFMFWVRQAPGKGLEWVSVISPSGGMTRYADSVKGRFTISRDNSKNTLYLQMNSLRAEDTAVYYCARVGYGGNSDYWGQGTLVTVSS
VL: DIQMTQSPSSVSASVGDRLTIICRASQDINRWLAWYQQTPGNAPKLLIHSATSLQSGVPSRFSGSGSGTDFTLTINSLQPEDFATYYCQQLDSFPLTFGGGTKVEIK
B15: C5A (XPA23) VL A51P (antibody, V domains shown)
VH: EVQLLESGGGLVQPGGSLRLSCAASGFTFSKYFMFWVRQAPGKGLEWVSVISPSGGMTRYADSVKGRFTISRDNSKNTLYLQMNSLRAEDTAVYYCARVGYGGNSDYWGQGTLVTVSS
VL: DIQMTQSPSSVSASVGDRLTIICRASQDINRWLAWYQQTPGNAPKLLIHSPTSLQSGVPSRFSGSGSGTDFTLTINSLQPEDFATYYCQQADSFPLTFGGGTKVEIK
B16: C5A (XPA23) VL S53W (antibody, V domains shown)
VH: EVQLLESGGGLVQPGGSLRLSCAASGFTFSKYFMFWVRQAPGKGLEWVSVISPSGGMTRYADSVKGRFTISRDNSKNTLYLQMNSLRAEDTAVYYCARVGYGGNSDYWGQGTLVTVSS
VL: DIQMTQSPSSVSASVGDRLTIICRASQDINRWLAWYQQTPGNAPKLLIHSATWLQSGVPSRFSGSGSGTDFTLTINSLQPEDFATYYCQQADSFPLTFGGGTKVEIK
B17: C5A (XPA23) VL T52A (antibody, V domains shown)
VH: EVQLLESGGGLVQPGGSLRLSCAASGFTFSKYFMFWVRQAPGKGLEWVSVISPSGGMTRYADSVKGRFTISRDNSKNTLYLQMNSLRAEDTAVYYCARVGYGGNSDYWGQGTLVTVSS
VL: DIQMTQSPSSVSASVGDRLTIICRASQDINRWLAWYQQTPGNAPKLLIHSAASLQSGVPSRFSGSGSGTDFTLTINSLQPEDFATYYCQQADSFPLTFGGGTKVEIK
B18: C5A (XPA23) VL T52L (antibody, V domains shown)
VH: EVQLLESGGGLVQPGGSLRLSCAASGFTFSKYFMFWVRQAPGKGLEWVSVISPSGGMTRYADSVKGRFTISRDNSKNTLYLQMNSLRAEDTAVYYCARVGYGGNSDYWGQGTLVTVSS
VL: DIQMTQSPSSVSASVGDRLTIICRASQDINRWLAWYQQTPGNAPKLLIHSALSLQSGVPSRFSGSGSGTDFTLTINSLQPEDFATYYCQQADSFPLTFGGGTKVEIK
B19: C5A (XPA23) VL T52F (antibody, V domains shown)
VH: EVQLLESGGGLVQPGGSLRLSCAASGFTFSKYFMFWVRQAPGKGLEWVSVISPSGGMTRYADSVKGRFTISRDNSKNTLYLQMNSLRAEDTAVYYCARVGYGGNSDYWGQGTLVTVSS
VL: DIQMTQSPSSVSASVGDRLTIICRASQDINRWLAWYQQTPGNAPKLLIHSAFSLQSGVPSRFSGSGSGTDFTLTINSLQPEDFATYYCQQADSFPLTFGGGTKVEIK
B20: C5A (XPA23) VL T52P (antibody, V domains shown)
VH: EVQLLESGGGLVQPGGSLRLSCAASGFTFSKYFMFWVRQAPGKGLEWVSVISPSGGMTRYADSVKGRFTISRDNSKNTLYLQMNSLRAEDTAVYYCARVGYGGNSDYWGQGTLVTVSS
VL: DIQMTQSPSSVSASVGDRLTIICRASQDINRWLAWYQQTPGNAPKLLIHSAPSLQSGVPSRFSGSGSGTDFTLTINSLQPEDFATYYCQQADSFPLTFGGGTKVEIK
B21: C5A (XPA23) VL A91V (antibody, V domains shown)
VH: EVQLLESGGGLVQPGGSLRLSCAASGFTFSKYFMFWVRQAPGKGLEWVSVISPSGGMTRYADSVKGRFTISRDNSKNTLYLQMNSLRAEDTAVYYCARVGYGGNSDYWGQGTLVTVSS
VL: DIQMTQSPSSVSASVGDRLTIICRASQDINRWLAWYQQTPGNAPKLLIHSATSLQSGVPSRFSGSGSGTDFTLTINSLQPEDFATYYCQQVDSFPLTFGGGTKVEIK

In this assay the target is binding partner of C5A (XPA23). In words: Biacore K-off. Background: In SPR one partner is held on a chip, and binding of the other changes the refractive index at the surface.
As to B1, the fold difference in affinity vs original turned out to be 0.24 fold.

Regarding B2, the fold difference in affinity vs original was 0.82 fold.

As to B3, the fold difference in affinity vs original came to 1.42 fold.

In the case of B4, the fold difference in affinity vs original was 4.92 fold.

Consider B5, for which the fold difference in affinity vs original turned out to be 0.4 fold.

On to B6, for which the fold difference in affinity vs original was 1.03 fold.

For the molecule B7, the fold difference in affinity vs original stood at 0.99 fold.

With B8, the fold difference in affinity vs original was determined as 1.07 fold.

Regarding B9, the fold difference in affinity vs original stood at 0.8 fold.

On to B10, for which the fold difference in affinity vs original came out at 1.24 fold.

Take B11: the fold difference in affinity vs original is 0.26 fold.

Take B12: the fold difference in affinity vs original worked out at 0.87 fold.

With B13, the fold difference in affinity vs original turned out to be 1.42 fold.

Turning to B14, the fold difference in affinity vs original was 0.39 fold.

Turning to B15, the fold difference in affinity vs original is 0.13 fold.

Consider B16, for which the fold difference in affinity vs original worked out at 1.11 fold.

Turning to B17, the fold difference in affinity vs original came out at 0.66 fold.

Regarding B18, the fold difference in affinity vs original was 0.78 fold.

Consider B19, for which the fold difference in affinity vs original came out at 1.05 fold.

B20: the fold difference in affinity vs original is 1.08 fold.

With B21, the fold difference in affinity vs original amounted to 0.51 fold.
